Substitutions are numbered along the chain they refer to. Names may count otherwise. Values belong to the binder of their own block, whether it stands above or below them.
Target: S. cerevisiae Msh2-Msh6 (S. cerevisiae, UniProt P25847 1-964; Q03834 1-1242)
Assay: SPR

S. cerevisiae Msh2-Msh6, sequence (P25847 whole entry, chain 1 of 2): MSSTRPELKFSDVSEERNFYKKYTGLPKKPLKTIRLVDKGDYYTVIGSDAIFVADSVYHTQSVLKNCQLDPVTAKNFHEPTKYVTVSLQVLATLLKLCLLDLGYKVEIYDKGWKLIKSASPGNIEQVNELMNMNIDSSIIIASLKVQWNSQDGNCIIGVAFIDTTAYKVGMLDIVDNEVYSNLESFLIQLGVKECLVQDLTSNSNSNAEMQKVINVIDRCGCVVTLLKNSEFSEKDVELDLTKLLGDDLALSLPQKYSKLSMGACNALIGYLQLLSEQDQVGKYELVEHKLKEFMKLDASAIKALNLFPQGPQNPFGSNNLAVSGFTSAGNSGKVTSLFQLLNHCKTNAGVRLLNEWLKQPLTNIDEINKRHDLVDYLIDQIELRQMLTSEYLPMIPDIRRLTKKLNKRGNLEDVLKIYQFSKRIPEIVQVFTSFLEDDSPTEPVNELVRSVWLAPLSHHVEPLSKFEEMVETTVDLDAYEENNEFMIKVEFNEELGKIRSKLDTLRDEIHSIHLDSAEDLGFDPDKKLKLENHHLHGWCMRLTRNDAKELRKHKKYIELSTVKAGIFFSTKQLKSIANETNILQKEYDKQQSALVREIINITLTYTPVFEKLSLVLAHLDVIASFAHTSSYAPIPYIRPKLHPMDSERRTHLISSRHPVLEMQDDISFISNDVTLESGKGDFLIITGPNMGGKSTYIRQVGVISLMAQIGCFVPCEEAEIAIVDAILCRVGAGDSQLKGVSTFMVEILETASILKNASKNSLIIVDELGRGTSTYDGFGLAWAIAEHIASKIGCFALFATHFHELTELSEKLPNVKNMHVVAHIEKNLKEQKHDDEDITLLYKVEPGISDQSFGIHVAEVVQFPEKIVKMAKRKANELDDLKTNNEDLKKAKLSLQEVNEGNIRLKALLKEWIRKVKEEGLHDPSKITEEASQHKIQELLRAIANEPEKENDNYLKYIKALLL
S. cerevisiae Msh2-Msh6, sequence (Q03834 whole entry, chain 2 of 2): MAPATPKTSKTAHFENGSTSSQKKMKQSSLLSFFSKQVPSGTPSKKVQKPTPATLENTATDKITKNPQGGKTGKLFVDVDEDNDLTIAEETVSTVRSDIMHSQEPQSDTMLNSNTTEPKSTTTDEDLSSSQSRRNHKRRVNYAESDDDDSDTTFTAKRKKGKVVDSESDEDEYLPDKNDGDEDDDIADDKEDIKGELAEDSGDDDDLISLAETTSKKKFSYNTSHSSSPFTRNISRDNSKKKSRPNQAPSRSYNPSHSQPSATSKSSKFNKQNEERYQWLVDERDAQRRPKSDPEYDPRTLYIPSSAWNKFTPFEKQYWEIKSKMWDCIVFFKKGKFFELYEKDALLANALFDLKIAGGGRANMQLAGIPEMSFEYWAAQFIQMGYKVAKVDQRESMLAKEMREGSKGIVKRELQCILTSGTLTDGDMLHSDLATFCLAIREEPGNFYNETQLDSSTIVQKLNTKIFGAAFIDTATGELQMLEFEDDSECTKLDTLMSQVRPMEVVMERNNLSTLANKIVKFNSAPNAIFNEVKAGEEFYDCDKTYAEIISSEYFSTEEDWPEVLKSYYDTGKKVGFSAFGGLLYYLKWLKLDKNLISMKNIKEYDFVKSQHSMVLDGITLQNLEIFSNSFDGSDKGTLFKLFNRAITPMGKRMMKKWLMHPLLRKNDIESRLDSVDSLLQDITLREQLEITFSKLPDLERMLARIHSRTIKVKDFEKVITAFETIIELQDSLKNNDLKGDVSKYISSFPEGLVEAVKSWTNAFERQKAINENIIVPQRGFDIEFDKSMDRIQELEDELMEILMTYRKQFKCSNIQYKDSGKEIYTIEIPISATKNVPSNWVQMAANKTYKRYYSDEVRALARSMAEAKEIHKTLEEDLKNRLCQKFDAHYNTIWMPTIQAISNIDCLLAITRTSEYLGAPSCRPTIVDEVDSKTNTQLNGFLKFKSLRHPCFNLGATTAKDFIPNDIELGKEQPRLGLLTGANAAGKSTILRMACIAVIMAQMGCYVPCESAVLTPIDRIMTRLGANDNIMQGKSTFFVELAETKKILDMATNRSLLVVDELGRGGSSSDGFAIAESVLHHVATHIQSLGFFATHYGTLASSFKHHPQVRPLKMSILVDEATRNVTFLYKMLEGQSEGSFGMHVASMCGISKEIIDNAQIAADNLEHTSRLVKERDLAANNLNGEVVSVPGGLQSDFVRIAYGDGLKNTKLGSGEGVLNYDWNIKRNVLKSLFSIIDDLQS

binding result: binds
B1: wild-type S. cerevisiae Mlh1-Pms1 (complex)
chain 1: MSLRIKALDASVVNKIAAGEIIISPVNALKEMMENSIDANATMIDILVKEGGIKVLQITDNGSGINKADLPILCERFTTSKLQKFEDLSQIQTYGFRGEALASISHVARVTVTTKVKEDRCAWRVSYAEGKMLESPKPVAGKDGTTILVEDLFFNIPSRLRALRSHNDEYSKILDVVGRYAIHSKDIGFSCKKFGDSNYSLSVKPSYTVQDRIRTVFNKSVASNLITFHISKVEDLNLESVDGKVCNLNFISKKSISPIFFINNRLVTCDLLRRALNSVYSNYLPKGNRPFIYLGIVIDPAAVDVNVHPTKREVRFLSQDEIIEKIANQLHAELSAIDTSRTFKASSISTNKPESLIPFNDTIESDRNRKSLRQAQVVENSYTTANSQLRKAKRQENKLVRIDASQAKITSFLSSSQQFNFEGSSTKRQLSEPKVTNVSHSQEAEKLTLNESEQPRDANTINDNDLKDQPKKKQKLGDYKVPSIADDEKNALPISKDGYIRVPKERVNVNLTSIKKLREKVDDSIHRELTDIFANLNYVGVVDEERRLAAIQHDLKLFLIDYGSVCYELFYQIGLTDFANFGKINLQSTNVSDDIVLYNLLSEFDELNDDASKEKIISKIWDMSSMLNEYYSIELVNDGLDNDLKSVKLKSLPLLLKGYIPSLVKLPFFIYRLGKEVDWEDEQECLDGILREIALLYIPDMVPKVDTSDASLSEDEKAQFINRKEHISSLLEHVLFPCIKRRFLAPRHILKDVVEIANLPDLYKVFERC
chain 2: MTQIHQINDIDVHRITSGQVITDLTTAVKELVDNSIDANANQIEIIFKDYGLESIECSDNGDGIDPSNYEFLALKHYTSKIAKFQDVAKVQTLGFRGEALSSLCGIAKLSVITTTSPPKADKLEYDMVGHITSKTTTSRNKGTTVLVSQLFHNLPVRQKEFSKTFKRQFTKCLTVIQGYAIINAAIKFSVWNITPKGKKNLILSTMRNSSMRKNISSVFGAGGMRGLEEVDLVLDLNPFKNRMLGKYTDDPDFLDLDYKIRVKGYISQNSFGCGRNSKDRQFIYVNKRPVEYSTLLKCCNEVYKTFNNVQFPAVFLNLELPMSLIDVNVTPDKRVILLHNERAVIDIFKTTLSDYYNRQELALPKRMCSQSEQQAQKRLKTEVFDDRSTTHESDNENYHTARSESNQSNHAHFNSTTGVIDKSNGTELTSVMDGNYTNVTDVIGSECEVSVDSSVVLDEGNSSTPTKKLPSIKTDSQNLSDLNLNNFSNPEFQNITSPDKARSLEKVVEEPVYFDIDGEKFQEKAVLSQADGLVFVDNECHEHTNDCCHQERRGSTDTEQDDEADSIYAEIEPVEINVRTPLKNSRKSISKDNYRSLSDGLTHRKFEDEILEYNLSTKNFKEISKNGKQMSSIISKRKSEAQENIIKNKDELEDFEQGEKYLTLTVSKNDFKKMEVVGQFNLGFIIVTRKVDNKYDLFIVDQHASDEKYNFETLQAVTVFKSQKLIIPQPVELSVIDELVVLDNLPVFEKNGFKLKIDEEEEFGSRVKLLSLPTSKQTLFDLGDFNELIHLIKEDGGLRRDNIRCSKIRSMFAMRACRSSIMIGKPLNKKTMTRVVHNLSELDKPWNCPHGRPTMRHLMELRDWSSFSKDYEI

binding result: binds
B2: Mlh1-K54C-Pms1 mutant complex (complex, S. cerevisiae)
chain 1: B1 chain 1 with K54C
chain 2: B1 chain 2
